Experimental data: patent US20230416351A1
pKd: −log10 of the molar value.

Target: recombinant VEGF165 protein (human) (UniProt P15692)
Experiment: SPR in vitro binding, drug and recombinant VEGF165, 37 C

Chain of recombinant VEGF165 protein (human) (P15692 other isoform, or with tags, fused parts or gaps): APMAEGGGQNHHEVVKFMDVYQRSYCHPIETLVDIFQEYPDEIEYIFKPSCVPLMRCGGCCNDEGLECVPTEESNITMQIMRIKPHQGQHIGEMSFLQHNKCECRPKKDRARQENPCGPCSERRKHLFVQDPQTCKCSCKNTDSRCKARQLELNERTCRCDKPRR

**Q.** With aflibercept (Fc fusion) as the substance, how does the pKd read?
**A.** 9.34
